Data reported in patent US7183387 (Genentech, dated 2007).
Residue numbers refer to the chain shown, from its start. In names and notes the source's numbering stands. One block for each binder: values may come before it.

Key:
[1] = target: T1, human FcγRIA α subunit extracellular domain-His6-GST fusion (human, UniProt P12314 16-292); assay: FcγRI ELISA, E27 background
T1 construct: extracellular domain; also called GST-FcγRIA; CD64; not shown: glutathione S transferase (GST)

[2] = target: T2, human FcγRIIA-Arg131 α subunit extracellular domain-His6-GST fusion (human, UniProt P12318 34-217); assay: immune complex ELISA, E27 background
T2 construct: extracellular domain; also called FcγRIIA-R131; not shown: glutathione S transferase (GST)
T2 sequence: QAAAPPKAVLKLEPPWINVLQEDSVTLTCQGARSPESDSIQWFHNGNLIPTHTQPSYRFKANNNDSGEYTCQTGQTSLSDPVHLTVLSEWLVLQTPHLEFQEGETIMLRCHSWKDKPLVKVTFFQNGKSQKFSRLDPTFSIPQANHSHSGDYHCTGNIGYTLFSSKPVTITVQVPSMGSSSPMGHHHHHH

[3] = target: T3, human FcγRIIB α subunit extracellular domain-His6-GST fusion (human, UniProt P31994 43-217); assay: immune complex ELISA, E27 background
T3 construct: extracellular domain; also called CD32; not shown: glutathione S transferase (GST)
T3 sequence: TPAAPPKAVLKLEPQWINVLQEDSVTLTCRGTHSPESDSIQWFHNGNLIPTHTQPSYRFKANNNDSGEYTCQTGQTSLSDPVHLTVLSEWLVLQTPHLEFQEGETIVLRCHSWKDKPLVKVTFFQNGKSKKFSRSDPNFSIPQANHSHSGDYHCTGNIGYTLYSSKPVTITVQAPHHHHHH

[4] = target: T4, human FcγRIIIA-Phe158 α subunit extracellular domain-His6-GST fusion (human, UniProt P08637 17-208); assay: immune complex ELISA, E27 background
T4 construct: extracellular domain; also called FcγRIIIA-F158; CD16; not shown: glutathione S transferase (GST)
T4 sequence (P08637 other isoform, or with tags, fused parts or gaps): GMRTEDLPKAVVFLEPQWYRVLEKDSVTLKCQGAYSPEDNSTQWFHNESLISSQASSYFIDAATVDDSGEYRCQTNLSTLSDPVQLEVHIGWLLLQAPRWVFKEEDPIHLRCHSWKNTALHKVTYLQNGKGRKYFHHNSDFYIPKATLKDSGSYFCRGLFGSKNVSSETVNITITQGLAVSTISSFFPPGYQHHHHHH

[5] = target: T5, human neonatal Fc receptor (FcRn), biotinylated (human, UniProt P55899 24-297; P61769 21-119, biotinylated (biotin-X-NHS)); assay: FcRn ELISA (E27 background by paragraph 363)
T5 construct: captured on streptavidin plates

[6] = target: T5, human neonatal Fc receptor (FcRn), …; assay: FcRn ELISA, pH 6.0;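 as to ratio to native IgG1: Streptavidin-captured FcRn plates, IgG variants titrated 2 h at pH 6.0, peroxidase anti-human IgG read at 450 nm, variant over standard concentration at the standard curve mid-point absorbance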
[7] = target: T2, human FcγRIIA-Arg131 α subunit …; assay: hexamer ELISA (row shifted)
[8] = target: T3, human FcγRIIB α subunit extracellular …; assay: hexamer ELISA (row shifted)
[9] = target: T4, human FcγRIIIA-Phe158 α subunit …; assay: hexamer ELISA (row shifted)
[10] = target: T1, human FcγRIA α subunit extracellular …; assay: FcγRI ELISA and THP-1 cells, averaged (row shifted)
[11] = target: T6, human FcγRIIA-His131 α subunit extracellular domain-His6-GST fusion (human, UniProt P12318 34-217); assay: hexamer ELISA
T6 construct: extracellular domain; also called FcγRIIA-H131; not shown: glutathione S transferase (GST)
T6 sequence: T2 sequence with R134H

[12] = target: T2, human FcγRIIA-Arg131 α subunit …; assay: hexamer ELISA
[13] = target: T3, human FcγRIIB α subunit extracellular …; assay: hexamer ELISA
[14] = target: T4, human FcγRIIIA-Phe158 α subunit …; assay: hexamer ELISA
[15] = target: T1, human FcγRIA α subunit extracellular …; assay: FcγRI ELISA and THP-1 cells, averaged
[16] = target: T7, human FcγRIIA-H131 α subunit extracellular domain-His6-GST fusion protein (human, UniProt P12318 34-217); assay: ELISA, IgG:IgE hexamer on coated FcγRIIA-H131-GST
T7 construct: also called FcγRIIA-His131; not shown: glutathione S-transferase (GST)
T7 sequence: T2 sequence with R134H

[17] = target: T7, human FcγRIIA-H131 α subunit …; assay: ELISA; binding ratio on FcγRIIA-H131 divided by that on FcγRIIA-R131
[18] = target: T8, human FcγRIIA-R131 α subunit extracellular domain-His6-GST fusion protein (human, UniProt P12318 34-217); assay: ELISA, IgG:IgE hexamer on coated FcγRIIA-R131-GST; separate assays run together with the H131 assays
T8 construct: ECD-6His-GST fusion made in 293 cells, coated on the plate; also called FcγRIIA-Arg131; not shown: glutathione S-transferase (GST)
T8 sequence: T2 sequence

[19] = target: T8, human FcγRIIA-R131 α subunit …; assay: ELISA, IgG:IgE hexamer on coated FcγRIIA-R131-GST; value said to be carried over from Table 6, 7 or 8
[20] = target: T5, human neonatal Fc receptor (FcRn), …; assay: FcRn ELISA, pH 6.0; remark: listed apart in the source;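 as to ratio to native IgG1: Streptavidin-captured FcRn plates, IgG variants titrated 2 h at pH 6.0, peroxidase anti-human IgG read at 450 nm, variant over standard concentration at the standard curve mid-point absorbance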
Protocol: FcRn Binding ELISA: For measuring FcRn binding activity of IgG variants, ELISA plates were coated with 2 µg/ml streptavidin (Zymed, South San Francisco) in 50 mM carbonate buffer, pH 9.6, at 4° C. overnight and blocked with PBS-0.5% BSA, pH 7.2 at room temperature for one hour. Biotinylated FcRn (prepared using biotin-X-NHS from Research Organics, Cleveland, Ohio and used at 1–2 µg/ml) in PBS-0.5% BSA, 0.05% polysorbate 20, pH 7.2, was added to the plate and incubated for one hour. Two fold serial dilutions of IgG standard (1.6–100 ng/ml) or variants in PBS-0.5% BSA, 0.05% polysorbate 20, pH 6.0, were added to the plate and incubated for two hours. Bound IgG was detected using peroxidase labeled goat F(ab')_2 anti-human IgG F(ab')_2 in the above pH 6.0 buffer (Jackson ImmunoResearch, West Grove, Pa.) followed by 3,3',5,5'-tetramethyl benzidine (Kirgaard & Perry Laboratories) as the substrate. Plates were washed between steps with PBS-0.05% TWEEN 20® at either pH 7.2 or 6.0. Absorbance was read at 450 nm on a Vmax plate reader (Molecular Devices, Menlo Park, Calif.). Titration curves were fit with a four-parameter nonlinear regression curve-fitting program (KaleidaGraph, Synergy software, Reading, Pa.). Concentrations of IgG variants corresponding to the mid-point absorbance of the titration curve of the standard were calculated and then divided by the concentration of the standard corresponding to the mid-point absorbance of the standard titration curve.

[21] = target: T4, human FcγRIIIA-Phe158 α subunit …; assay: hexamer ELISA; remark: listed apart in the source

T1 sequence (P12314 other isoform, or with tags, fused parts or gaps): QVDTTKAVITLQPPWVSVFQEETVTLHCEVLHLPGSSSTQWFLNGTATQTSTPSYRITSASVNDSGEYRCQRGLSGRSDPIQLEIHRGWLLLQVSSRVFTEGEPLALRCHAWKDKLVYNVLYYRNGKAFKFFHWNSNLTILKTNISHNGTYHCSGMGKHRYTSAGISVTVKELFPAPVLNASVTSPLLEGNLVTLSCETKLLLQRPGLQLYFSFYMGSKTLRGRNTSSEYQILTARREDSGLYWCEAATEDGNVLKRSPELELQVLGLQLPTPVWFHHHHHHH

- percentage of the wild type [1]: 100%
- percentage of the wild type [2]: 100%
- percentage of the wild type [3]: 100%
- percentage of the wild type [4]: 100%
- binding result [5]: binds
B1: recombinant humanized anti-IgE E27 IgG1 (parent antibody) (antibody)
heavy: not shown
light: DIQLTQSPSSLSASVGDRVTITCRASKPVDGEGDSYLNWYQQKPGKAPKLLIYAASYLESGVPSRFSGSGSGTDFTLTISSLQPEDFATYYCQQSHEDPYTFGQGTKVEIKRTVAAPSVFIFPPSDEQLKSGTASVVCLLNNFYPREAKVQWKVDNALQSGNSQESVTEQDSKDSTYSLSSTLTLSKADYEKHKVYACEVTHQGLSSPVTKSFNRGEC
notes: non-A allotype IgG1 Fc; E27 and all its variants were tested as monomers on FcRn and FcγRI and as hexamers with human IgE (3 E27 : 3 IgE) on FcγRIIA, FcγRIIB and FcγRIIIA; also called wt; E27 wildtype

- ratio to native IgG1 [6]: < 0.1 ratio
- ratio to native IgG1 [7]: 0.93 ratio
- ratio to native IgG1 [8]: 0.91 ratio
- ratio to native IgG1 [9]: 0.91 ratio
- ratio to native IgG1 [10]: 0.99 ratio
B2: anti-IgE E27 IgG1 Tyr436Ala (antibody)
heavy: not shown
light: B1 light

- percentage of the wild type [1]: 102%
- percentage of the wild type [2]: 94%
- percentage of the wild type [3]: 83%
- percentage of the wild type [4]: 72%
- binding result [5]: binds
B3: anti-IgE E27 IgG1 K320A (antibody)
heavy: not shown
light: B1 light

- percentage of the wild type [1]: 93%
- percentage of the wild type [2]: 113%
- percentage of the wild type [3]: 106%
- percentage of the wild type [4]: 104%
- binding result [5]: binds
B4: anti-IgE E27 IgG1 E318A (antibody)
heavy: not shown
light: B1 light
notes: also called Glu318Ala

- reduction in binding against native IgG1 [11]: 50%
- ratio to native IgG1 [12]: 0.06 ratio
- ratio to native IgG1 [13]: 0.1 ratio
- ratio to native IgG1 [14]: 0.14 ratio
- ratio to native IgG1 [6]: 1.05 ratio
- ratio to native IgG1 [15]: 0.76 ratio
B5: anti-IgE E27 IgG1 Asp270Ala (antibody)
heavy: not shown
light: B1 light
notes: also called D270(283)A

- ratio of binding of the variant to that of native IgG1 [16]: 1.13 ratio (variant/native IgG1)
- H131/R131 [17]: 1.1 ratio (H131 value/R131 value)
- ratio of binding of the variant to that of native IgG1 [18]: 1.05 ratio (variant/native IgG1)
- ratio of binding of the variant to that of native IgG1 [19]: 1.14 ratio (variant/native IgG1)
B6: anti-IgE E27 IgG1 variant Lys320Ala (antibody)
heavy: not shown
light: B1 light
notes: also called K320(339)A; IG2 48

- ratio to native IgG1 [6]: < 0.1 ratio
- ratio to native IgG1 [7]: 0.77 ratio
- ratio to native IgG1 [8]: 0.72 ratio
- ratio to native IgG1 [9]: 0.78 ratio
- ratio to native IgG1 [10]: 1.25 ratio
B7: anti-IgE E27 IgG1 His435Ala (antibody)
heavy: not shown
light: B1 light

- ratio to native IgG1 [12]: 1.18 ratio
- ratio to native IgG1 [13]: 1.07 ratio
- ratio to native IgG1 [14]: 0.92 ratio
- fold better binding than native IgG1 [20]: 2 fold
- ratio to native IgG1 [6]: 2.19 ratio
- ratio to native IgG1 [15]: 1.04 ratio
B8: anti-IgE E27 IgG1 Glu380Ala (antibody)
heavy: not shown
light: B1 light

- fold better binding than native IgG1 [20]: 13 fold
B9: anti-IgE E27 IgG1 Thr307Ala/Glu380Ala/Asn434Ala (antibody)
heavy: EVQLVESGGGLVQPGGSLRLSCAVSGYSITSGYSWNWIRQAPGKGLEWVASIKYSGETKYNPSVKGRITISRDDSKNTFYLQMNSLRAEDTAVYYCARGSHYFGHWHFAVWGQGTLVTVSSASTKGPSVFPLAPSSKSTSGGTAALGCLVKDYFPEPVTVSWNSGALTSGVHTFPAVLQSSGLYSLSSVVTVPSSSLGTQTYICNVNHKPSNTKVDKKVEPKSCDKTHTCPPCPAPELLGGPSVFLFPPKPKDTLMISRTPEVTCVVVDVSHEDPEVKFNWYVDGVEVHNAKTKPREEQYNSTYRVVSVLAVLHQDWLNGKEYKCKVSNKALPAPIEKTISKAKGQPREPQVYTLPPSREEMTKNQVSLTCLVKGFYPSDIAVAWESNGQPENNYKTTPPVLDSDGSFFLYSKLTVDKSRWQQGNVFSCSVMHEALHAHYTQKSLSLSPGK
light: B1 light

- binding result [21]: no binding
- reduction in binding against native IgG1 [11]: 50%
B10: anti-IgE E27 IgG1 Ser267Gly (antibody)
heavy: not shown
light: B1 light

- ratio to native IgG1 [12]: 0.96 ratio
- ratio to native IgG1 [13]: 0.97 ratio
- ratio to native IgG1 [14]: 0.77 ratio
- fold better binding than native IgG1 [20]: 3.5 fold
- ratio to native IgG1 [6]: 3.46 ratio
- ratio to native IgG1 [15]: 1 ratio
B11: anti-IgE E27 IgG1 Asn434Ala (antibody)
heavy: not shown
light: B1 light

- ratio to native IgG1 [6]: < 0.1 ratio
- ratio to native IgG1 [7]: 0.97 ratio
- ratio to native IgG1 [8]: 1.15 ratio
- ratio to native IgG1 [9]: 0.73 ratio
- ratio to native IgG1 [10]: 0.96 ratio
B12: anti-IgE E27 IgG1 Ser254Ala (antibody)
heavy: not shown
light: B1 light
